# Assay results published in patent US20210340276A1.
# B1: Sample No. 1: [DFO-C(═O)-(1,3-phenylene)-C(═O)-Gly-Lys-Z2]p-Fab (Fab, V domains shown)
# VH: QVQLVQSGAEVKKPGASVKVSCKASGYTFTNYGLSWVRQAPGQGLEWMGENHPGSGIIYHNEKFRGRVTLTADRSTSTAYMELSSLRSEDTAVYYCARSSGTRGFDYWGQGTLVTVSS
# VL: DVVMTQTPLSLSVTPGQPASISCRSSQSIVHSNGNTYLEWYLQKPGQSPQLLIYRVSNRFSGVPDRFSGSGSGTDFTLKISRVEAEDVGVYYCFQGSHGPWTFGQGTKLEIKR
# modifications: may carry the labeling moiety; sites not stated; [DFO-C(═O)-(1,3-phenylene)-C(═O)-Gly-Lys-Z2] labeling moiety bound via 2-iminothiolane to amino group(s) of the Fab, one or two per Fab by MS, sites and chain not stated; N-terminal Gln into pyroglutamic acid in a great majority (Example 2)
# B2: Sample No. 7: [DOTA-Met-Ile-NH-(CH2)2-Z1]p-Fab (Fab, V domains shown)
# VH: B1 VH
# VL: B1 VL
# modifications: may carry the labeling moiety; sites not stated; [DOTA-Met-Ile-NH-(CH2)2-Z1] labeling moiety bound via 2-iminothiolane to amino group(s) of the Fab, one to three per Fab by MS, sites and chain not stated; N-terminal Gln into pyroglutamic acid in a great majority (Example 2)
# B3: Sample No. 4: [DOTA]p-Fab (Fab, V domains shown)
# VH: B1 VH
# VL: B1 VL
# modifications: may carry the labeling moiety; sites not stated; DOTA bound directly (via N-hydroxysulfosuccinimidyl DOTA) to amino group(s) of the Fab, one or two per Fab by MS, sites and chain not stated; N-terminal Gln into pyroglutamic acid in a great majority (Example 2)
# B4: Sample No. 6: [DOTA-NH-CH2-(1,3-phenylene)-C(═O)-Gly-Lys-Z2]p-Fab (Fab, V domains shown)
# VH: B1 VH
# VL: B1 VL
# modifications: may carry the labeling moiety; sites not stated; [DOTA-NH-CH2-(1,3-phenylene)-C(═O)-Gly-Lys-Z2] labeling moiety bound via 2-iminothiolane to amino group(s) of the Fab, one to three per Fab by MS, sites and chain not stated; N-terminal Gln into pyroglutamic acid in a great majority (Example 2)
# B5: Sample No. 2: [DFO-C(═O)-CH2O-(1,3-phenylene)-C(═O)-Gly-Lys-Z2]p-Fab (Fab, V domains shown)
# VH: B1 VH
# VL: B1 VL
# modifications: may carry the labeling moiety; sites not stated; [DFO-C(═O)-CH2O-(1,3-phenylene)-C(═O)-Gly-Lys-Z2] labeling moiety bound via 2-iminothiolane to amino group(s) of the Fab, one or two per Fab by MS, sites and chain not stated; N-terminal Gln into pyroglutamic acid in a great majority (Example 2)
# B6: Sample No. 5: [DOTA-Gly-Lys-Z2]p-Fab (Fab, V domains shown)
# VH: B1 VH
# VL: B1 VL
# modifications: may carry the labeling moiety; sites not stated; [DOTA-Gly-Lys-Z2] labeling moiety bound via 2-iminothiolane to amino group(s) of the Fab, one or two per Fab by MS, sites and chain not stated; N-terminal Gln into pyroglutamic acid in a great majority (Example 2)
# B7: Sample No. 3: [DOTA-CH2-(1,4-phenylene)-NH-C(═S)]p-Fab (Fab, V domains shown)
# VH: B1 VH
# VL: B1 VL
# modifications: may carry the labeling moiety; sites not stated; [DOTA-CH2-(1,4-phenylene)-NH-C(═S)] (from p-SCN-Bn-DOTA) bound to amino group(s) of the Fab, one to four per Fab by MS, sites and chain not stated; N-terminal Gln into pyroglutamic acid in a great majority (Example 2)
# Molecular target: Human cancer-specific MUC1 peptide (PTL 1) (human)
# Test: ELISA, MUC1 peptide immobilized on 384-well plate, HRP anti-human Igκ detection, luminescence
row,Binder,EC50 [nM]
1,B1,0.29
2,B2,0.31
3,B3,0.35
4,B4,0.3
5,B5,0.3
6,B6,0.31
7,B7,0.49
